T1: PURA (Pur-alpha) (Homo sapiens, UniProt Q00577 1-322)
T1 sequence: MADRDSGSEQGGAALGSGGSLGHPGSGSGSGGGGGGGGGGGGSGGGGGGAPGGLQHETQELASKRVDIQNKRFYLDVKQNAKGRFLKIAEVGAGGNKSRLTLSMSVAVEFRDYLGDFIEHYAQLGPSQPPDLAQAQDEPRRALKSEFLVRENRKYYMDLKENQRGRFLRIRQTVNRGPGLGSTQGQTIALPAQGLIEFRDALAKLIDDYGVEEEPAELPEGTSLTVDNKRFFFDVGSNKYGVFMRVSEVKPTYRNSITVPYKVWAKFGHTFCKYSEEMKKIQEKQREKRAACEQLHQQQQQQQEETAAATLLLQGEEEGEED

B1: CLTA (ssRNA)
RNA: GUUGUUUGUGAUUGCAUGUUUCCUUCCUUCAACUGUGUUCUCCCUGGCAUU
B2: CLTC (ssRNA)
RNA: GUCUUGUGUGUGUUUACUAACCCUUCCCUGAGGUUUGUGUAUGUUGGAUAUUGUGGUGUUUUAG

Molecular target: T1, PURA (Pur-alpha)
Assay: EMSA; 100 ug/ml yeast tRNA; 250 mM NaCl, 20 mM HEPES pH 8.0, 3 mM MgCl2, 4% glycerol, 2 mM DTT, 100 ug/ml yeast tRNA, 2.5 nM RNA, 20 min RT; 6% TBE gel
Details: protein: recombinant; tags: GST-PURA (pOPIN-J); GST removed with 3C protease; chain copies: 2; label: 5' 32P

Row | Binder | binding result
1 | B1 | binds
2 | B2 | binds
